According to PMC6702053 (Developmental cell, 2019):

Tests used:
Assay in all cases: pull-down
[1] = molecular target: T1, GST-PI31-S168E (phospho-mimetic mutant) (Drosophila melanogaster, UniProt Q9V637 1-270, S168E)
T1 sequence (looked up): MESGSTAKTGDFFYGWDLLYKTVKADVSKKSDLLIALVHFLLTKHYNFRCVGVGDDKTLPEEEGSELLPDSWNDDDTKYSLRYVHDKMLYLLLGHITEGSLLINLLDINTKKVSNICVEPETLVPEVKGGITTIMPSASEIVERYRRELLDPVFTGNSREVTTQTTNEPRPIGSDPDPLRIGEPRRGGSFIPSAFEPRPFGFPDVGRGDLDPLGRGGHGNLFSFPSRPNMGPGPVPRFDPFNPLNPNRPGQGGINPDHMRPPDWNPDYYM

[2] = molecular target: T2, GST-PI31-S168D (phospho-mimetic mutant) (Drosophila melanogaster, UniProt Q9V637 1-270, S168D)
T2 sequence (looked up): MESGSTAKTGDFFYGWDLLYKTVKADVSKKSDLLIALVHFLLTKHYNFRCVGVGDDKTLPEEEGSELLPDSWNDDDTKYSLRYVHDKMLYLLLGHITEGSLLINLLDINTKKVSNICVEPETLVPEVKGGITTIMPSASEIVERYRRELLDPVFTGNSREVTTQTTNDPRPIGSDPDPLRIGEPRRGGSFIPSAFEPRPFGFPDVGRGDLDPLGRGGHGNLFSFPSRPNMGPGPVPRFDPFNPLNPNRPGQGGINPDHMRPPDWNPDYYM

[3] = molecular target: T3, GST-tagged wild-type PI31 (GST-PI31-WT) (Drosophila melanogaster, UniProt Q9V637 1-270)
T3 sequence (looked up): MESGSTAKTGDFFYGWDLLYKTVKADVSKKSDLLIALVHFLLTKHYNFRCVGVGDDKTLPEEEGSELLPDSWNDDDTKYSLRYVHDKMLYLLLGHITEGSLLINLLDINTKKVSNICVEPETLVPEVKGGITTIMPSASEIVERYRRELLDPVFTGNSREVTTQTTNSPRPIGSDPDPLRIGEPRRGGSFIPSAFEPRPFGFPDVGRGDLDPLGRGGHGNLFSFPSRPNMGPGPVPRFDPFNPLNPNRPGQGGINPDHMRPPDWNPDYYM

binding result [1]: binds
binding result [2]: binds
binding result [3]: binds
B1: recombinant FLAG-dDYNLL1 expressed in E. coli (natural protein, Drosophila melanogaster, UniProt Q24117 1-89, looked up)
chain: MSDRKAVIKNADMSEEMQQDAVDCATQALEKYNIEKDIAAYIKKEFDKKYNPTWHCIVGRNFGSYVTHETRHFIYFYLGQVAILLFKSG
